{"source": "patent US20240018501A1", "about": "“HIGHER PERFORMANCE PROTEASES FOR SCARLESS PEPTIDE TAG REMOVAL” (priority 2017, published 2024)", "molecules": {"B1": {"name": "His6-CylA-27-412 (protein)", "chain": "MGSSHHHHHHSQDPNSLSNNISFFIDNSQTTAIEEIESELSSEKVDYIQEIGLVSFKNLDDSDRKFIGKYFNVSEGKKLPDFKPEEVNSSILNINILNKDFKSFNWPYKKILSHIDPVKEQLGKDITIALIDSGIDRLHPNLQDNNLRLKNYVNDIELDEYGHGTQVAGVIDTIAPRVNLNSYKVMDGTDGNSINMLKAIVDATNDQVDIINVSLGSYKNMEIDDERFTVEAFRKVVNYARKNNILIVASAGNESRDISTGNEKHIPGGLESVITVGATKKSGDIADYSNYGSNVSIYGPAGGYGDNYKITGQIDAREMMMTYYPTSLVSPLGKAADFPDGYTLSFGTSLATPEVSAALAAIMSKNVDNSKDSNEVLNTLFENADSFIDKNSMLKYKEVRIK"}}, "key": {"His6-NisA": {"target": "His6-NisA (UniProt P13068)"}, "[1]": {"target": "CylLL″ with a 5-amino acid peptide remaining from the leader"}, "[2]": {"target": "peptides with Glu or Lys in the P1′ position (after GDVQAE)"}, "[3]": {"target": "ProcA1.7-T1C (with GDVQAE)"}, "[4]": {"target": "HalM1-modified HalA1-GDVQAE"}, "His6-NisA-GDVQAE, P13068": {"target": "T1, His6-NisA-GDVQAE, P13068", "T1 chain": "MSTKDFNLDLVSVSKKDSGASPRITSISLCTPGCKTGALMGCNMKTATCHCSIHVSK"}, "[5]": {"target": "HalM2-modified HalA2-GDVQAE"}, "[6]": {"target": "NisA-I1C (with GDVQAE), P13068"}, "[7]": {"target": "CylLS″ with a 5-amino acid N-terminal peptide"}, "[8]": {"target": "His6-ProcA1.7 with GDVQAE inserted between the His6-tag sequence and ProcA1.7"}}}
{"molecule": "MBP-ElxP", "values": [{"measurement": "MBP-ElxP cleavage result by MALDI-TOF MS (+++ complete, ++ partial, + marginal cleavage)", "setting": "His6-ElxA N-16A", "value": "+++"}, {"measurement": "MBP-ElxP cleavage result by MALDI-TOF MS (+++ complete, ++ partial, + marginal cleavage)", "setting": "His6-ElxA Q-1A", "value": "+"}, {"measurement": "fold reduction of the ElxP catalytic efficiency against wild type ElxA", "setting": "His6-ElxA Q-1A", "value": "reduction of ˜14-fold in the ElxP catalytic efficiency"}, {"measurement": "MBP-ElxP cleavage result by MALDI-TOF MS (+++ complete, ++ partial, + marginal cleavage)", "setting": "His6-ElxA wt", "value": "+++"}, {"measurement": "catalytic efficiency of cleavage (HPLC, leader peptide formation)", "setting": "His6-ElxA wt", "value": "MBP-ElxP cleaved the wild type ElxA with an efficiency of ˜240 M-'s 1"}, {"measurement": "MBP-ElxP cleavage result by MALDI-TOF MS (+++ complete, ++ partial, + marginal cleavage)", "setting": "His6-ElxA P-2A", "value": "++"}, {"measurement": "efficiency of leader peptide removal (HPLC kinetics, FIG. 3D)", "setting": "His6-ElxA P-2A", "value": "did not obviously decrease the efficiency of MBP-ElxP to remove the N-terminal leader peptide from ElxA"}, {"measurement": "MBP-ElxP cleavage result by MALDI-TOF MS (+++ complete, ++ partial, + marginal cleavage)", "setting": "His6-ElxA N-3A", "value": "+++"}, {"measurement": "cleavage by ElxP, MALDI-TOF MS", "setting": "His6-NisA", "value": "ElxP does not cleave wild type NisA"}, {"measurement": "MBP-ElxP cleavage result by MALDI-TOF MS (+++ complete, ++ partial, + marginal cleavage)", "setting": "His6-ElxA L-17A", "value": "+++"}, {"measurement": "MBP-ElxP cleavage result by MALDI-TOF MS (+++ complete, ++ partial, + marginal cleavage)", "setting": "His6-ElxA D-5A", "value": "+"}, {"measurement": "MBP-ElxP cleavage result by MALDI-TOF MS (+++ complete, ++ partial, + marginal cleavage)", "setting": "His6-ElxA F-19A", "value": "++"}, {"measurement": "MBP-ElxP cleavage result by MALDI-TOF MS (+++ complete, ++ partial, + marginal cleavage)", "setting": "His6-ElxA D-18A", "value": "+++"}, {"measurement": "MBP-ElxP cleavage result by MALDI-TOF MS (+++ complete, ++ partial, + marginal cleavage)", "setting": "His6-ElxA L-4A", "value": "+"}, {"measurement": "fold reduction of the ElxP catalytic efficiency against wild type ElxA", "setting": "His6-ElxA L-4A", "value": "reduction of ˜14-fold in the ElxP catalytic efficiency"}]}
{"molecule": "B1", "values": [{"measurement": "cleavage by CylA, MALDI-TOF MS", "setting": "[1]", "value": "the 5 amino acids were successfully removed"}, {"measurement": "cleavage by CylA", "setting": "[2]", "value": "it did not accept Glu or Lys in the P1′ position"}, {"measurement": "cleavage by CylA, MALDI-TOF MS", "setting": "linear CylLL", "value": "it also removed the leader peptides from linear CylLL and CylLS"}, {"measurement": "cleavage by CylA", "setting": "[3]", "value": "CylA cleanly removed the leader peptide from both substrates"}, {"measurement": "cleavage by CylA, MALDI-TOF MS", "setting": "ProcA1.7-GDVQAE-T1W", "value": "CylA specifically cleaved after Glu-1 for all three mutant peptides"}, {"measurement": "cleavage by CylA, MALDI-TOF MS", "setting": "[4]", "value": "The modified peptide was successfully digested upon incubation with CylA"}, {"measurement": "cleavage by CylA, MALDI-TOF MS", "setting": "linear CylLS", "value": "it also removed the leader peptides from linear CylLL and CylLS"}, {"measurement": "cleavage by CylA, MALDI-TOF MS", "setting": "ProcA1.7-GDVQAE-T1G", "value": "CylA specifically cleaved after Glu-1 for all three mutant peptides, albeit with a lower efficiency for the T-1G mutant"}, {"measurement": "cleavage by CylA, MS", "setting": "modified CylLS", "value": "the enzyme also removed the entire leader peptides"}, {"measurement": "cleavage by CylA, MALDI-TOF MS", "setting": "His6-NisA-GDVQAE, P13068", "value": "the leader peptides of both His6-ProcA1.7-GDVQAE and His6-NisA-GDVQAE were successfully removed"}, {"measurement": "cleavage by CylA, MALDI-TOF MS", "setting": "His6-ProcA1.7-GDVQAE", "value": "the leader peptides of both His6-ProcA1.7-GDVQAE and His6-NisA-GDVQAE were successfully removed"}, {"measurement": "cleavage by CylA, MALDI-TOF MS", "setting": "ProcA1.7-GDVQAE-T1F", "value": "CylA specifically cleaved after Glu-1 for all three mutant peptides"}, {"measurement": "cleavage by CylA, MALDI-TOF MS", "setting": "[5]", "value": "the leader peptide was successfully removed"}, {"measurement": "cleavage by CylA", "setting": "[6]", "value": "CylA cleanly removed the leader peptide from both substrates"}, {"measurement": "cleavage by CylA, MALDI-TOF MS", "setting": "[7]", "value": "the 5 amino acids were successfully removed"}, {"measurement": "cleavage by CylA", "setting": "[8]", "value": "Incubation with CylA indeed resulted in cleavage and removal of the His6-tag sequence"}, {"measurement": "cleavage by CylA, MS", "setting": "modified CylLL", "value": "the enzyme also removed the entire leader peptides"}]}
